Values quoted from earlier work, collected in paper PMC2892782.

Molecular target: Lys41 (UniProt position 67, TKDRCKPVNTF)
Test: NMR

For “Ribonuclease A (bovine pancreatic ribonuclease) (Bos taurus)”, the pKa is given as 8.6-9.1.
